# Experimental data reported in the Human Domainome abundance scans (Beltran et al. 2025).
# ± gives the uncertainty stated by the source.
# B1: Syntaxin-binding protein 4, residues 493 to 538; numbered along this chain, Q6ZWJ1 (parent)
# chain: LDMDCLPYGWEEAYTADGIKYFINHVTQTTSWIHPVMSVLNLSRSE
# Variants of: B1
# Assay: abundance fitness (aPCA) (normalised: wild type 0, dead -1); higher = more abundant; growth selection in yeast, the domain comes from the species named
# Details: Homo sapiens
row,Variant,abundance fitness
1,N24V,-0.74 ± 0.11
2,N24S,-0.93 ± 0.14
3,N24R,-0.876 ± 0.12
4,N24H,-0.282 ± 0.14
5,N24Q,-0.923 ± 0.2
6,N24T,-0.909 ± 0.18
7,N24C,-0.798 ± 0.16
8,N24M,-0.978 ± 0.27
9,Y21K,-0.923 ± 0.17
10,Y21W,-0.674 ± 0.099
11,Y21T,-0.93 ± 0.14
12,Y21R,-0.962 ± 0.1
13,Y21C,-0.908 ± 0.14
14,Y21G,-0.873 ± 0.092
15,Y21A,-0.952 ± 0.12
16,Y21S,-0.778 ± 0.11
17,Y21H,-1.05 ± 0.22
18,Y21E,-0.953 ± 0.14
19,Y21Q,-0.544 ± 0.13
20,Y21F,-0.91 ± 0.24
21,Y21I,-0.894 ± 0.36
22,Y21D,-0.989 ± 0.18
23,Y21V,-0.998 ± 0.11
24,Y21N,-0.731 ± 0.19

row,Variant,abundance fitness
1,Y21M,-1.03 ± 0.17
2,Q28R,-0.316 ± 0.086
3,Q28L,-1 ± 0.13
4,Q28V,-0.789 ± 0.098
5,Q28E,-0.525 ± 0.12
6,Q28W,-0.695 ± 0.13
7,Q28C,-0.573 ± 0.13
8,Q28I,-0.664 ± 0.16
9,Q28G,0.294 ± 0.075
10,Q28H,-0.204 ± 0.13
11,Q28A,-0.509 ± 0.11
12,Q28P,-0.793 ± 0.14
13,Q28M,0.031 ± 0.14
14,Q28K,-0.027 ± 0.13
15,Q28S,-0.312 ± 0.091
16,Q28N,0.159 ± 0.12
17,Q28D,-0.467 ± 0.13
18,Q28T,-0.81 ± 0.13
19,Q28F,-0.422 ± 0.14
20,D17A,-0.69 ± 0.11
21,D17L,-0.823 ± 0.093
22,D17N,-0.548 ± 0.12
23,D17K,-0.547 ± 0.1
24,D17V,-0.648 ± 0.097

row,Variant,abundance fitness
1,D17C,-0.873 ± 0.12
2,D17P,-0.867 ± 0.12
3,D17Y,-0.881 ± 0.14
4,D17R,-0.697 ± 0.085
5,D17F,-0.942 ± 0.14
6,D17S,-0.625 ± 0.09
7,D17W,-0.835 ± 0.1
8,D17I,-0.63 ± 0.11
9,D17G,-0.76 ± 0.084
10,D17H,-0.691 ± 0.18
11,D17Q,-0.571 ± 0.14
12,D17M,-0.88 ± 0.12
13,D17T,-0.793 ± 0.12
14,T30N,-0.727 ± 0.25
15,T30R,-0.719 ± 0.093
16,T30K,-0.692 ± 0.15
17,T30Q,-0.624 ± 0.12
18,T30S,0.363 ± 0.086
19,T30E,-0.857 ± 0.13
20,T30P,-0.857 ± 0.17
21,T30D,-0.859 ± 0.14
22,T30F,-0.998 ± 0.26
23,T30V,-0.691 ± 0.096
24,T30L,-0.512 ± 0.096

row,Variant,abundance fitness
1,T30Y,-1 ± 0.32
2,T30C,-0.142 ± 0.14
3,T30I,-0.936 ± 0.16
4,T30G,-0.632 ± 0.085
5,Y14R,-0.389 ± 0.075
6,Y14T,-0.522 ± 0.1
7,Y14W,-0.271 ± 0.086
8,Y14V,-0.411 ± 0.08
9,Y14P,-1 ± 0.12
10,Y14S,-0.462 ± 0.08
11,Y14N,-0.994 ± 0.17
12,Y14M,-0.614 ± 0.1
13,Y14Q,-0.305 ± 0.1
14,K20C,-0.753 ± 0.1
15,K20D,-0.743 ± 0.14
16,K20S,-0.836 ± 0.1
17,K20Y,-0.783 ± 0.15
18,K20Q,-0.897 ± 0.13
19,K20L,-0.794 ± 0.094
20,K20M,-0.848 ± 0.12
21,K20T,-0.767 ± 0.13
22,K20P,-0.141 ± 0.094
23,K20W,-0.686 ± 0.1
24,K20V,-0.717 ± 0.089

row,Variant,abundance fitness
1,K20R,-0.198 ± 0.075
2,K20N,-0.54 ± 0.19
3,K20H,-0.444 ± 0.18
4,K20G,-0.857 ± 0.087
5,K20F,-0.919 ± 0.17
6,K20I,-0.853 ± 0.19
7,K20A,-0.699 ± 0.089
8,W32T,-0.872 ± 0.15
9,W32L,-0.49 ± 0.097
10,W32D,-0.539 ± 0.16
11,W32N,-0.342 ± 0.25
12,W32S,-0.679 ± 0.11
13,W32H,-1.09 ± 0.29
14,W32E,-0.628 ± 0.12
15,W32Y,-0.33 ± 0.17
16,W32F,-0.558 ± 0.16
17,W32K,-0.576 ± 0.12
18,W32P,-0.581 ± 0.14
19,W32G,-0.664 ± 0.089
20,W32V,-0.787 ± 0.12
21,W32M,-0.151 ± 0.12
22,W32A,-0.787 ± 0.11
23,W32R,-0.408 ± 0.085
24,W32Q,-0.86 ± 0.25

row,Variant,abundance fitness
1,W32C,-0.346 ± 0.12
2,V26G,0.022 ± 0.08
3,V26H,0.137 ± 0.14
4,V26W,-0.846 ± 0.12
5,V26R,-0.096 ± 0.08
6,V26F,-0.294 ± 0.15
7,V26M,-0.29 ± 0.11
8,V26Q,-0.004 ± 0.2
9,V26I,-0.038 ± 0.094
10,V26T,0.168 ± 0.12
11,V26D,-0.087 ± 0.14
12,V26K,-0.29 ± 0.27
13,V26L,-0.482 ± 0.1
14,V26S,-0.07 ± 0.098
15,V26A,0.058 ± 0.094
16,G18D,-0.576 ± 0.11
17,G18I,-0.488 ± 0.22
18,G18W,-0.493 ± 0.091
19,G18S,-0.725 ± 0.091
20,G18K,-0.453 ± 0.12
21,G18N,-0.845 ± 0.15
22,G18M,-0.846 ± 0.14
23,G18Y,-0.787 ± 0.15
24,G18V,-0.867 ± 0.095

row,Variant,abundance fitness
1,G18P,-0.834 ± 0.12
2,G18H,-0.862 ± 0.22
3,G18Q,-0.661 ± 0.12
4,G18C,-0.902 ± 0.12
5,G18E,-0.681 ± 0.13
6,G18T,-0.949 ± 0.13
7,T29R,-0.594 ± 0.14
8,T29V,0.766 ± 0.1
9,T29H,-0.847 ± 0.13
10,T29Y,-0.61 ± 0.13
11,T29D,-0.777 ± 0.17
12,T29F,-0.674 ± 0.12
13,T29S,-0.475 ± 0.098
14,T29C,0.271 ± 0.12
15,T29N,-0.759 ± 0.14
16,T29L,-0.969 ± 0.12
17,T29M,-0.789 ± 0.19
18,T29K,-0.759 ± 0.46
19,T29Q,-0.956 ± 0.39
20,T29A,-0.486 ± 0.15
21,T29W,-0.556 ± 0.47
22,T29G,-0.777 ± 0.24
23,T29I,0.226 ± 0.1
